Columns and labels:
NNOS = NNOS (Rattus norvegicus, UniProt P29476); assay: CAM binding: radiolabeled CAM trapped on a membrane by NNOS adhesion; conditions: no peptide: 774 ± 40
Description: (§1) JX series polypeptides are approximately 30-mers derived from ENOS and NNOS inhibitory polypeptides. B058 series are shorter (6-mers to 15-mers) peptides derived from flanking loops or from shorter segments of inhibitory polypeptides. CAM binding data represents counts from radiolabeled CAM trapped on a membrane by NNOS adhesion. INOS activity was assayed by measuring oxidation of ferrous myoglobin by product NO.

INOS = INOS (Rattus norvegicus, UniProt Q06518); assay: INOS activity by oxidation of ferrous myoglobin by product NO; type: biochemical; parameters: unit not given here; conditions: for INOS Activity 0.1 mg/ml: peptide 0.1 mg/ml, no peptide: 14.9 ± .56; for INOS activity 0.3 mg/ml: peptide 0.3 mg/ml, no peptide: 12.3 ± .19; for INOS Activity 1.0 mg/ml: peptide 1.0 mg/ml, no peptide: 13.0 ± .23
Description: as §1

recombinant bovine ENOS = target: T1, recombinant bovine ENOS (Bos taurus, UniProt P29473); assay: NOS activity, kinetic 96-well microtiter plate assay, NADPH consumption; type: biochemical; conditions: mean ± SEM, triplicate
T1 construct: made in house; host or cells: E. coli
T1 sequence (P29473 1-1205): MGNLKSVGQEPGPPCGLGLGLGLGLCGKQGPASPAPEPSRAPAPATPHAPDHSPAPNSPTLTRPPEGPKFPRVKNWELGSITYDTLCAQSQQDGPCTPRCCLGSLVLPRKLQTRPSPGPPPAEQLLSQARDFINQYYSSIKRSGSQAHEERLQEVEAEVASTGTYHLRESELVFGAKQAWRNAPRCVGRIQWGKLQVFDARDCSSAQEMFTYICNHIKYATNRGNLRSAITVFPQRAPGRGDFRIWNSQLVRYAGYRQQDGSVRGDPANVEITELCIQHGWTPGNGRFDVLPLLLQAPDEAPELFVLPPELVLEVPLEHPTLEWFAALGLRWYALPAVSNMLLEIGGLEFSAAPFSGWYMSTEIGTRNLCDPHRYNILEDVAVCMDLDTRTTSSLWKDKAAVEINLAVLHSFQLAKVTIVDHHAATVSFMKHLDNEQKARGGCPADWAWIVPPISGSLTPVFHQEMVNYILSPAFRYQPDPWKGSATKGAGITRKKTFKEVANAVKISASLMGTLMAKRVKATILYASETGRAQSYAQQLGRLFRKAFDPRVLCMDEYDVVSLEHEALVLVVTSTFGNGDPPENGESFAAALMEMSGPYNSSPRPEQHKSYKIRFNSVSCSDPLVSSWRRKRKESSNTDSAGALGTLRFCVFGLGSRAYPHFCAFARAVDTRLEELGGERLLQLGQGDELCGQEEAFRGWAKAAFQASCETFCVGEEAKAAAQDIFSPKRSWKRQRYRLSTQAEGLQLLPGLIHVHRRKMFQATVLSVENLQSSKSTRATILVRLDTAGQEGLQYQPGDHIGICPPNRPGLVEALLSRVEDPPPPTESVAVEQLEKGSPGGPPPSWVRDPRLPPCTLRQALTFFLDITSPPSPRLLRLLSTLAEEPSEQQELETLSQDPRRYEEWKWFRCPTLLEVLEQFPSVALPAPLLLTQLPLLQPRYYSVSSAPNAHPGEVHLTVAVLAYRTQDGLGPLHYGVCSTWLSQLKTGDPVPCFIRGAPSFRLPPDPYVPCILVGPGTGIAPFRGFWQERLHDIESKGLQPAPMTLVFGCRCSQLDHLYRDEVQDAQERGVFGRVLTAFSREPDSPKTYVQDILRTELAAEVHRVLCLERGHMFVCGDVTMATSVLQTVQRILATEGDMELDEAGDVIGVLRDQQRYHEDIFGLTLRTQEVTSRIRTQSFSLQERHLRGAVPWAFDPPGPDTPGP
Description: (§2) NOS activity measurements were performed using recombinant rat NNOS (purified from overexpressing HEK293 cells), recombinant bovine ENOS (purified from overexpressing E. coli) or native INOS (from immunostimulant-activated rat aortic smooth muscle cells). Activity was determined with 1-20 pmole of NOS using a kinetic 96-well microtiter plate assay based on the kinetics of NADPH consumption (NNOS and ENOS) or Fe^2+-myoglobin oxidation. Radioligand binding was performed after incubation of 1-2 pmole of NOS for 15 minutes at 23° C. with either Bolton-Hunter labelled [125I]-calmodulin (1 nM) or [3H]-N-nitro-L-arginine (200 pM) and the indicated peptides. Values are means ±SEM of triplicate determinations.

recombinant rat NNOS = target: T2, recombinant rat NNOS (Rattus norvegicus, UniProt P29476); assay: as above; type: biochemical; conditions: mean ± SEM, triplicate
T2 construct: made in house; host or cells: HEK293 cells
T2 sequence (P29476 whole entry): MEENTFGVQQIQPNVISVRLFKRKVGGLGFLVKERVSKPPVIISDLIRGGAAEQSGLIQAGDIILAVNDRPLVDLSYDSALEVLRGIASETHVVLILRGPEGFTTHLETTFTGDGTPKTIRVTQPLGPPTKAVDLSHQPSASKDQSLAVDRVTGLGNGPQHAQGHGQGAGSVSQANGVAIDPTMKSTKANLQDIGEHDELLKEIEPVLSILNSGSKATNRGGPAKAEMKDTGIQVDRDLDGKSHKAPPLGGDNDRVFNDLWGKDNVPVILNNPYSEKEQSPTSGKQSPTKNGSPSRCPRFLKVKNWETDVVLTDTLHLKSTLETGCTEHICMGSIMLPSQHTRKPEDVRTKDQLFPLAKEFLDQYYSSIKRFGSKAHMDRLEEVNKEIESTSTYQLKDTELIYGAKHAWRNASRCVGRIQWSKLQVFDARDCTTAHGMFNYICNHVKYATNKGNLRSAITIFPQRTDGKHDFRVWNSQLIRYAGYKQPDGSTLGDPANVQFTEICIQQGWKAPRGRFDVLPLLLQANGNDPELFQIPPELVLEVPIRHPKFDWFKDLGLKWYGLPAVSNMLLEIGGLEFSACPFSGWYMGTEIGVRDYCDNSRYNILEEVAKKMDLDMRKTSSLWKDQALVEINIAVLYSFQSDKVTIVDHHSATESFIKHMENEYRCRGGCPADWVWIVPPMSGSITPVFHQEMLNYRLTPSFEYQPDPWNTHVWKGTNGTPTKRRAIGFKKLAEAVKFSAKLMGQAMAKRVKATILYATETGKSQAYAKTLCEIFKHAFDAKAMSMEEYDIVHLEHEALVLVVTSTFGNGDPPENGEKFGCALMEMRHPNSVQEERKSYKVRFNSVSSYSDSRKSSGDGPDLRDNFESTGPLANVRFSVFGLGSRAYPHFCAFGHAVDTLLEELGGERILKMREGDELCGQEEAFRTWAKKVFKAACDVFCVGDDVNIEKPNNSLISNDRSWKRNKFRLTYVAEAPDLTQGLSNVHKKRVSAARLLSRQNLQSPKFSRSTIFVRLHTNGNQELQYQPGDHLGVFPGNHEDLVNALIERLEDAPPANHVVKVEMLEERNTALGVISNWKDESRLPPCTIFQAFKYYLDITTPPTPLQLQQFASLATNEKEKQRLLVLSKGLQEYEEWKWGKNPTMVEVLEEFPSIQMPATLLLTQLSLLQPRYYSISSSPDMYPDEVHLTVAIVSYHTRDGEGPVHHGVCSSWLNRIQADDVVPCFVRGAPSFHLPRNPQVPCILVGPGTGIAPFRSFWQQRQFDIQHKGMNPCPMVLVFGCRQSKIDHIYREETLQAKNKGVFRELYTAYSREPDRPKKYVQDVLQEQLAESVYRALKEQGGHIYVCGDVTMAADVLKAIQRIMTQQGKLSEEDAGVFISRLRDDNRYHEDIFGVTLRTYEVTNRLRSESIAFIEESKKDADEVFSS
Description: as §2

[1] = target: T3, native INOS (from immunostimulant-activated rat aortic smooth muscle cells) (Rattus norvegicus, UniProt Q06518); assay: NOS activity, kinetic 96-well microtiter plate assay, Fe2+-myoglobin oxidation; type: biochemical; conditions: mean ± SEM, triplicate
T3 construct: endogenous in cells
Description: as §2

NOS [2] = assay: Radioligand binding of [3H]-N-nitro-L-arginine to NOS; parameters: scale not given here; conditions: ligand 200 pM, 15 minutes at 23° C., mean ± SEM
Description: as §2

NOS [3] = assay: Radioligand binding of [125I]-calmodulin to NOS; parameters: scale not given here; conditions: ligand 1 nM, 15 minutes at 23° C., mean ± SEM
Description: as §2

Chain of NNOS (P29476 whole entry): as above

Substance	NNOS CAM Binding (NNOS)	INOS Activity 0.1 mg/ml (INOS)	INOS activity 0.3 mg/ml (INOS)	NOS Activity (% of control) ENOS (recombinant bovine ENOS; peptide 100 μg/ml)	NOS Activity (% of control) NNOS (recombinant rat NNOS; peptide 100 μg/ml)	NOS Activity (% of control) INOS ([1]; peptide 100 μg/ml)	Ligand binding to NOS [3H]-NHA (NOS [2]; peptide 100 μg/ml)	Ligand binding to NOS [125I]-CAM (NOS [3]; peptide 100 μg/ml)	NOS Activity (% of control) ENOS (recombinant bovine ENOS; peptide 300 μg/ml)	NOS Activity (% of control) NNOS (recombinant rat NNOS; peptide 300 μg/ml)	NOS Activity (% of control) INOS ([1]; peptide 300 μg/ml)	Ligand binding to NOS [3H]-NHA (NOS [2]; peptide 300 μg/ml)	INOS Activity 1.0 mg/ml (INOS)	Ligand binding to NOS [125I]-CAM (NOS [3]; peptide 300 μg/ml)
AVDTLLEELGGERT [BO58-02, 22]	953 ± 80 counts	15.1 ± .03												
AVDTRLEELGGERT [BO58-01, 35]	986 ± 58 counts	15.0 ± .73												
DDVVSLEHET [BO58-04, 24]	903 ± 57 counts	15.8 ± .73	14.9 ± .56											
DIDQKLSHLGASQT [BO58-03, 23]	863 ± 19 counts	14.4 ± .27												
DIVHLEHES [BO58-05, 25]	952 ± 52 counts	14.6 ± .03												
KASTLEEEQ [BO58-06, 26]	951 ± 100 counts	15.3 ± .32												
QEERKSYKVRF [BO58-09, 16]	686 ± 43 counts	14.7 ± .28		93.6 ± 2.3 % of control	102.0 ± 2.1 % of control	101.1 ± 3.7 % of control	118.9 ± 4.1	82.7 ± 1.1						
QEERKSYKVRFNSVSSYSDSQKSSGDGPDL [JX4, 19]	659 ± 41 counts	14.1 ± .57	10.4 ± .57						80.2 ± 3.8 % of control	103.0 ± 1.3 % of control	84.1 ± 3.5 % of control	95.7 ± 4.7	8.4 ± .57	82.7 ± 1.1
QHKSYKIRFNSVSCSDPLVSSWRRKRKE [JX3, 15]	674 ± 100 counts	12.9 ± .32	7.9 ± .11						40.2 ± 4.0 % of control	28.2 ± 0.9 % of control	64.3 ± 3.2 % of control	122.4 ± 1.0	2.9 ± .32	0.0 ± 4.8
RPEQHKSYKIRF [BO58-10, 17]	1339 ± 49 counts	14.6 ± .02		80.5 ± 2.0 % of control	54.5 ± 1.8 % of control	99.7 ± 5.7 % of control	115.0 ± 8.6	24.7 ± 2.2						
SDSRKSSGDGPDLR [BO58-11, 18]	908 ± 56 counts	14.7 ± .94		102.6 ± 4.1 % of control	98.4 ± 1.9 % of control	99.7 ± 2.8 % of control	119.2 ± 3.4	89.2 ± 6.2						
SSPRPEQHKSYKIRFNSVSCSDPLVSSWRRKRKESS [JX2, 14]	1356 ± 46 counts	13.1 ± .11	7.7 ± .11						57.2 ± 7.5 % of control	30.4 ± 1.7 % of control	62.2 ± 2.8 % of control	116.3 ± 1.9	3.2 ± .11	0.0 ± 7.4
WRRKRK [BO58-07, 12]	1749 ± 40 counts	13.6 ± .31		24.0 ± 2.8 % of control	11.0 ± 3.3 % of control	91.1 ± 5.7 % of control	91.7 ± 5.1	6.7 ± 3.6						
